One protein from publication PMC8309402, “Evolutionary Implications of a Peroxidase with High Affinity for Cinnamyl Alcohols from Physcomitrium patens, a Non-Vascular Plant” (Plants, 2021) can be followed below.

Substrate in data set [1]: COc1cc(/C=C/CO)ccc1O
The data set is described as follows: purified protein. The data set is classed as biochemical, Physcomitrium patens. To be noted: 0.5 mM H2O2 (saturating), 50 mM sodium acetate pH 5.0, 5-100 μM substrate.

Substrate in data set [2]: COc1cc(/C=C/CO)cc(OC)c1O
Kind of data set: purified protein. The class given is biochemical, Physcomitrium patens. To be noted: 0.5 mM H2O2 (saturating), 50 mM sodium acetate pH 5.0, 1-110 μM substrate.

B1: PpaPrx19 (Physcomitrium patens) (protein)
chain: TTDFYAKSCPRIHSIVKAEIKKAVNVEKRMAASLIRLHFHDCFVHGCDGSILLDSIPGMDSEKFAPPNDRSARGYEAIDAIKVALEKACPRTVSCADILAIAYRDSAVEVGLVPEYPVPFGRRDSLRAAPIAEVNLRLPGPDFDISTLKASFANQSLDERDLVALSGAHTIGRVRCQFVRLFLNDPGTNADFKKELARLCAPTVDAFTLQNLDLKTPDKFDNNYYKNLRRGEGIIRSDQVLWSSEGTHQKITKDFAENQENFFRQFIESSIKMGKIKPPPGSPSEIRLNCHQANPRPLIEQVVAVE
notes: native, purified from gametophores (ammonium sulfate, phenyl Sepharose, SP Sepharose); mature secreted protein, 332 aa precursor incl; 26 aa N-terminal signal peptide (predicted); 46 kDa lipase (XP_001755452) co-purified
With B1, in the data set “purified protein [1]”, the Km was found to be 16.7 µM, the catalytic constant (kcat) came to 3940 s⁻¹ and the specificity constant (kcat/Km) stood at 2.36e+08 M⁻¹ s⁻¹. Further, in the data set “purified protein [2]”, the Km stood at 20.8 µM, the kcat amounted to 281 s⁻¹ and the specificity constant (kcat/Km) was determined as 1.35e+07 M⁻¹ s⁻¹.

As usually defined, the Km is the substrate concentration at which the rate is half of its maximum. One may read the kcat as the number of substrate molecules converted per active site and unit of time at saturation. Usually kcat/Km stands for the second-order rate constant that governs catalysis at low substrate concentration.
